Values quoted from earlier work in patent US12599654B2, “Immunogenic peptide fragments of metalloprotease ADAMTS-7 and uses thereof in anti-atherosclerosis and related diseases” (BEIJING KIMWAY BIOTECH CO. LTD, priority 2019, dated 2026).

Target: T1, proprotein convertase subtilisin/kexin type 9 (PCSK9) (Homo sapiens, UniProt Q8NBP7)
T1 construct: host or cells: human trial subjects (endogenous circulating PCSK9)
Conditions: low-dose, phase I clinical trials; cited from earlier work

REGN727: monoclonal antibody against the proprotein convertase subtilisin/kexin type 9 (PCSK9)
reduction of LDL level of subjects: more than 30%
